Assay results published in US20020012949A1, “Assay systems for leptin-enhancing agents” (priority 1997, published 2002).

Target: T1, OB-RY1141F (Homo sapiens, UniProt P48357, Y1141F)
T1 construct: cells transfected with the full-length OB-R constructs; expressed in transfected cells; host or cells: COS-7
T1 sequence (P48357 22-1165 Y1141F): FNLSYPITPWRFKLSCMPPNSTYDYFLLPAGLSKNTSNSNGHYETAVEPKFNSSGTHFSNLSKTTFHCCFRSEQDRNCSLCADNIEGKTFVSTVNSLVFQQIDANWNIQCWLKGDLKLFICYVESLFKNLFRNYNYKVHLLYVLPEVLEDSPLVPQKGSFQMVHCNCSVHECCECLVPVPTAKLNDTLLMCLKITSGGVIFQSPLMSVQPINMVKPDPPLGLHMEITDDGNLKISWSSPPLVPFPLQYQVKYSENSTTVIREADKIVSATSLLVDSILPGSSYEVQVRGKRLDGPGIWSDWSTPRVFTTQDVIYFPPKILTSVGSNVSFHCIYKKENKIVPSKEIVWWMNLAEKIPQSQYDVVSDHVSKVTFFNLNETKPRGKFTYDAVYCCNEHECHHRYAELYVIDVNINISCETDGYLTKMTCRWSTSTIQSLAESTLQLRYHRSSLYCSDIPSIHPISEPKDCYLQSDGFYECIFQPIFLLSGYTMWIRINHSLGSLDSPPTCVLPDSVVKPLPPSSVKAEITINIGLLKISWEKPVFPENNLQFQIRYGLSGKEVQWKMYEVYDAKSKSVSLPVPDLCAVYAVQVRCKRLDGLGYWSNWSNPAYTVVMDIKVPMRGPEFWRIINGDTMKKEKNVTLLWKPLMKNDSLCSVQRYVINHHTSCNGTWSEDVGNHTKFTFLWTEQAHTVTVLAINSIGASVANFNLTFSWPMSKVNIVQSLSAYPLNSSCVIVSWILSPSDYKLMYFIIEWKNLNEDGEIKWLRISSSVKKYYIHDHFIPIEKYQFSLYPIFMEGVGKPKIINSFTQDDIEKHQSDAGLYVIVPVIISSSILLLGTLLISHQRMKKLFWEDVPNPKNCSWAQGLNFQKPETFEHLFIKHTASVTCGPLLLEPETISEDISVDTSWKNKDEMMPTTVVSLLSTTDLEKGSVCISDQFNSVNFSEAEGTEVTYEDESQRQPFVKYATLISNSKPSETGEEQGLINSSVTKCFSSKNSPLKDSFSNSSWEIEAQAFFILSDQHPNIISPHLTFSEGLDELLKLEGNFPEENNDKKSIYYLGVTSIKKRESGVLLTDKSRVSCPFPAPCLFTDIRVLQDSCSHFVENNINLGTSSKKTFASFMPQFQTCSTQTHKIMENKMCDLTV
Test: Luciferase reporter gene assay (3(G3)-Cy6-LUC), leptin stimulation of COS cells expressing mutant OB-RY1141F
Assay type: cell-based
Conditions: mutant construct OB-RY1141F, 100 ng/ml leptin for 24 hours
Experimental: The cytoplasmic domain and full-length human OB-R was cloned by PCR using human fetal liver and adipocyte cDNA (Clontech) and cloned into the expression vectors pCMX and pMT21. Chimeric receptors were constructed by fusing the extracellular domain and transmembrane domain of TrkC (amino acids 1 to 458) to the cytoplasmic domain of OB-R (amino acids 865-1165). A triple myc epitope tag was added at the C-terminus of all OB-R constructs (18). Truncation and point mutant constructs were generated by PCR and the sequences of all constructs were verified. Expression constructs were transfected into COS-7 cells using lipofectamine (GIBCO-BRL); 36-48 hours after transfection, cells were starved for either 2 hour,s for chimeric receptors or overnight for full-length receptors prior to stimulation.
Expression constructs (1 μg) for OB-R, OB-RY1141F, OB-RY986F, OB-RY1078, 1079F, and OB-RY986, 1141F were co-transfected with 1 μg of 3(G3)-Cy6-LUC and 0.1 μg of pCMX.LacZ into COS-7 cells (6-well dishes) using lipofectamine. The day after transfection, media was changed to serum-free OptiMEM (GIBCO-BRL) and then treated with 100 ng/ml murine leptin (PeproTech) or human leptin (R&D Systems) for 24 hours. […] Luciferase and β-galactosidase activities were measured in cell lysates (30) and luciferase activity was normalized to β-galactosidase activity to control for transfection differences. […]

induction of luciferase activity: no induction
Substance: leptin: the product of the obese gene, secreted by adipocytes; ligand of OB-R
